# Reference: PMC3434267
# What was measured:
# [1] = biological target: mGluR5 (endogenous, mouse) (mouse (endogenous in brain, spinal cord and cultured cortical neurons)) (UniProt Q3UVX5); test: co-IP
# [2] = biological target: Homer (pan-Homer immunoprecipitation), DIV 14 cortical neurons (Figure 5c) (mouse (endogenous in cultured cortical neurons)); test: co-IP
"co-IP in Preso1^−/− brain, % of WT [1]","co-IP in BDNF-treated Preso1^−/− neurons, % of untreated WT [2]","co-IP in DHPG-treated Preso1^−/− neurons, % of untreated WT [2]","co-IP in WT neurons after BDNF 30 min, % of untreated [2]","co-IP in WT neurons after DHPG 30 min, % of untreated (% of untreated) [2]","co-IP in untreated Preso1^−/− neurons, % of untreated WT (BDNF series) [2]","co-IP in untreated Preso1^−/− neurons, % of untreated WT (DHPG series) [2]",Substance
64.4 % of WT,–,–,–,–,–,–,"ERK1/2, mouse forebrain (Figure 5b)"
–,69.8%,54%,158%,157,65.3%,47%,"mGluR5 (endogenous, mouse) (from UniProt Q3UVX5 19-1203) (receptor)"
